Measured values taken from paper PMC9969694, “YULINK regulates vascular formation in zebrafish and HUVECs” (Biological Research, 2023).

T1: AcGFP-YULINK (full-length) (human, UniProt Q9NXC5-1 1-875)
T1 construct: YULINK, full-length, conjugated with AcGFP; also called full-length AcGFP-YULINK; source: HEK-293 T, co-transfected, in live cells
T1 sequence (looked up): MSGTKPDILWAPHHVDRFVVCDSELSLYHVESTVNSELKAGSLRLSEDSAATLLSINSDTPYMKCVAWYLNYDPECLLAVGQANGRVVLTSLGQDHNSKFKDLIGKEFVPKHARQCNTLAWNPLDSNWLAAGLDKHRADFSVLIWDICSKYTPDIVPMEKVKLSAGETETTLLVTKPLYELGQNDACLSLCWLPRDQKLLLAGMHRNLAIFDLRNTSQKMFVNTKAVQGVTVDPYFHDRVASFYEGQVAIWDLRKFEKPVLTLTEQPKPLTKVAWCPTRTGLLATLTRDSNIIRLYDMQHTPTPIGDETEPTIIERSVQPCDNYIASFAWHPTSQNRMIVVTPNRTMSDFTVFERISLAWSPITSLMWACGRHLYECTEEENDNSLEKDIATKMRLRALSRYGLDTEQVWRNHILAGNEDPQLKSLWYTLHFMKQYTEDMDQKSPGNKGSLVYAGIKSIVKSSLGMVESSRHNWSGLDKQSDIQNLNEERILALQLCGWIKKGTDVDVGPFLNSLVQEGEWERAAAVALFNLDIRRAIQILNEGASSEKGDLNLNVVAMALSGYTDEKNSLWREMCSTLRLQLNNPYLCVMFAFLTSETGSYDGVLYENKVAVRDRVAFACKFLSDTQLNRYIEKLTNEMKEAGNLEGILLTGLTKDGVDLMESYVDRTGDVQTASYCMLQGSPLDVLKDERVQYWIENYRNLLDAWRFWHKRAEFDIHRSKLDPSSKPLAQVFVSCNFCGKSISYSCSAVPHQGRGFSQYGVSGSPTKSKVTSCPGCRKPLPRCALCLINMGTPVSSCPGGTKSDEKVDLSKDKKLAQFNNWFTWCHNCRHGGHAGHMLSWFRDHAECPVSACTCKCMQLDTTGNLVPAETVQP


Columns and labels:
Assay in all cases: FRET or BRET; FLIM-FRET in HEK-293 T cells 48 h after co-transfection; AcGFP donor on YULINK (full-length or truncated), DsRed acceptor on the partner; mean fluorescence lifetime τ of AcGFP and FRET efficiency E; AcGFP-YULINK alone about 2.71 ns
[1] = molecular target: AcGFP-YULINKΔN (human)
[2] = molecular target: AcGFP-YULINKΔC (human)
[3] = molecular target: T1, AcGFP-YULINK (full-length); conditions: partners not purified

DsRed-TICAM2, sequence (Q86XR7 whole entry): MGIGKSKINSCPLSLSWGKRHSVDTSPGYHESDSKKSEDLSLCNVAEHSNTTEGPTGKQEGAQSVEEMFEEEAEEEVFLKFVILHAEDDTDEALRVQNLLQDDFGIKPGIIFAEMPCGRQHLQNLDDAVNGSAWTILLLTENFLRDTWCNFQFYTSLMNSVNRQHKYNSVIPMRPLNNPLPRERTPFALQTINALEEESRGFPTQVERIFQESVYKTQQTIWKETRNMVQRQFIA

| Molecule | FRET efficiency E [1] [%] | mean fluorescence lifetime τ of the donor [1] [ns] | FRET efficiency E [2] [%] | mean fluorescence lifetime τ of the donor [2] [ns] | FRET efficiency E [3] [%] | mean fluorescence lifetime τ of the donor [3] [ns] |
| --- | --- | --- | --- | --- | --- | --- |
| DsRed-RAB33B (from UniProt Q9H082 1-229) (natural protein) | 36.5 | 1.72 |  |  |  |  |
| DsRed-TICAM2 (from UniProt Q86XR7 1-235) (natural protein) | 19.6 | 2.18 | 17.7 | 2.23 |  |  |
| DsRed-RAB33B (natural protein, human, UniProt Q9H082 1-229, looked up, RAB33B conjugated with DsRed; source: HEK-293 T, co-transfected, in live cells) MAEEMESSLEASFSSSGAVSGASGFLPPARSRIFKIIVIGDSNVGKTCLTYRFCAGRFPDRTEATIGVDFRERAVEIDGERIKIQLWDTAGQERFRKSMVQHYYRNVHAVVFVYDMTNMASFHSLPSWIEECKQHLLANDIPRILVGNKCDLRSAIQVPTDLAQKFADTHSMPLFETSAKNPNDNDHVEAIFMTLAHKLKSHKPLMLSQPPDNGIILKPEPKPAMTCWC |  |  |  |  | 8.1 | 2.49 |
| DsRed-EPS15 (natural protein, human, UniProt P42566 1-896, looked up, EPS15 conjugated with DsRed; also called DsRed-ESP15; source: HEK-293 T, co-transfected, in live cells) MAAAAQLSLTQLSSGNPVYEKYYRQVDTGNTGRVLASDAAAFLKKSGLPDLILGKIWDLADTDGKGILNKQEFFVALRLVACAQNGLEVSLSSLNLAVPPPRFHDTSSPLLISGTSAAELPWAVKPEDKAKYDAIFDSLSPVNGFLSGDKVKPVLLNSKLPVDILGRVWELSDIDHDGMLDRDEFAVAMFLVYCALEKEPVPMSLPPALVPPSKRKTWVVSPAEKAKYDEIFLKTDKDMDGFVSGLEVREIFLKTGLPSTLLAHIWSLCDTKDCGKLSKDQFALAFHLISQKLIKGIDPPHVLTPEMIPPSDRASLQKNIIGSSPVADFSAIKELDTLNNEIVDLQREKNNVEQDLKEKEDTIKQRTSEVQDLQDEVQRENTNLQKLQAQKQQVQELLDELDEQKAQLEEQLKEVRKKCAEEAQLISSLKAELTSQESQISTYEEELAKAREELSRLQQETAELEESVESGKAQLEPLQQHLQDSQQEISSMQMKLMEMKDLENHNSQLNWCSSPHSILVNGATDYCSLSTSSSETANLNEHVEGQSNLESEPIHQESPARSSPELLPSGVTDENEVTTAVTEKVCSELDNNRHSKEEDPFNVDSSSLTGPVADTNLDFFQSDPFVGSDPFKDDPFGKIDPFGGDPFKGSDPFASDCFFRQSTDPFATSSTDPFSAANNSSITSVETLKHNDPFAPGGTVVAASDSATDPFASVFGNESFGGGFADFSTLSKVNNEDPFRSATSSSVSNVVITKNVFEETSVKSEDEPPALPPKIGTPTRPCPLPPGKRSINKLDSPDPFKLNDPFQPFPGNDSPKEKDPEIFCDPFTSATTTTNKEADPSNFANFSAYPSEEDMIEWAKRESEREEEQRLARLNQQEQEDLELAIALSKSEISEA |  |  |  |  | 11.4 | 2.4 |
